Publication PMC8206089, “Split NanoLuc technology allows quantitation of interactions between PII protein and its receptors with unprecedented sensitivity and reveals transient interactions” (Scientific Reports, 2021)
One block for each substance: values may come before it.

Legend:
[1] = target: NAGK (Synechococcus elongatus) (UniProt Q6V1L5); assay: ultrafiltration; conditions: cited from earlier work
[2] = target: PII-LgBiT (wild-type PII protein from Synechocystis sp. PCC6803 fused to Large BiT) (Synechocystis sp. PCC6803) (UniProt Q55247); assay: split reporter (BiFC, NanoBiT); competition; 10 pM PII-LgBiT trimer with PipX (180, 900, 1800 nM monomer) 15 min at 30 °C, then 180 nM NAGK-SmBiT monomer for 30 min; 2 mM ATP
[3] = target: PII-LgBiT (wild-type PII protein from Synechocystis sp. PCC6803 fused to Large BiT) (Synechocystis sp. PCC6803) (UniProt Q55247); assay: split reporter (BiFC, NanoBiT); time course; 10 pM PII-LgBiT and 10 nM PipX-SmBiT; complex formed with 2 mM ATP, then 2 mM 2-OG added
[4] = target: PII-LgBiT (wild-type PII protein from Synechocystis sp. PCC6803 fused to Large BiT) (Synechocystis sp. PCC6803) (UniProt Q55247); assay: split reporter (BiFC, NanoBiT); time course; 10 pM PII-LgBiT and 10 nM PipX-SmBiT; ATP/ADP mixtures at a total ADP + ATP concentration of 2 mM
[5] = target: PII-LgBiT (wild-type PII protein from Synechocystis sp. PCC6803 fused to Large BiT) (Synechocystis sp. PCC6803) (UniProt Q55247); assay: split reporter (BiFC, NanoBiT); time course; 10 pM PII-LgBiT and 10 nM PipX-SmBiT; complex formed with 1 mM ATP + 1 mM ADP, then 2 mM 2-OG added
[6] = target: PII-LgBiT (wild-type PII protein from Synechocystis sp. PCC6803 fused to Large BiT) (Synechocystis sp. PCC6803) (UniProt Q55247); assay: split reporter (BiFC, NanoBiT); in solution; PipX-SmBiT (0-800 nM) titrated to 10 pM PII-LgBiT trimer; 2 mM ADP; 50 mM Tris/HCl pH 7.6, 100 mM KCl, 10% glycerol, 2 mM MgCl2, 0.1% BSA; 15 min at 30 °C; KD from half-maximal luminescence
[7] = target: PII-LgBiT (wild-type PII protein from Synechocystis sp. PCC6803 fused to Large BiT) (Synechocystis sp. PCC6803) (UniProt Q55247); assay: split reporter (BiFC, NanoBiT); in solution; PipX-SmBiT (0-800 nM) titrated to 10 pM PII-LgBiT trimer; 2 mM ATP; 50 mM Tris/HCl pH 7.6, 100 mM KCl, 10% glycerol, 2 mM MgCl2, 0.1% BSA; 15 min at 30 °C; KD from half-maximal luminescence

Chain of PII-LgBiT (wild-type PII protein from Synechocystis sp. PCC6803 fused to Large BiT) (Synechocystis sp. PCC6803) (Q55247 whole entry, the tested form may be a part): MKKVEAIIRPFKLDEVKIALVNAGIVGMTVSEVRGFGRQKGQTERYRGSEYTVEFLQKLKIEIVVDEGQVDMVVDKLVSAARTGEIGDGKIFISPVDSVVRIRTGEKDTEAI
Chain of NAGK (Synechococcus elongatus) (Q6V1L5 whole entry, the tested form may be a part): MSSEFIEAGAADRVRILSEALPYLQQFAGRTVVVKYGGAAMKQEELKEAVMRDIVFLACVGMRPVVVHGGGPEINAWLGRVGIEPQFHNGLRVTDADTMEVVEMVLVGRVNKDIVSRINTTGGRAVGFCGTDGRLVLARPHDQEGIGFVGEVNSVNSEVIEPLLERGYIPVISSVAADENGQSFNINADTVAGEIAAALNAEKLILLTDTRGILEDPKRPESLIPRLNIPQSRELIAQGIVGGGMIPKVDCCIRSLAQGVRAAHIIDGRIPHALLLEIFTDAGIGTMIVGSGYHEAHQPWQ
Chain of PII (P0A3F4 whole entry): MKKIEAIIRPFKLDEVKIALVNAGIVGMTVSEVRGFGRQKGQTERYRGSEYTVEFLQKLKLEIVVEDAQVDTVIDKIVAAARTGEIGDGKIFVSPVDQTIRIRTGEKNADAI

Substance: PII (from UniProt P0A3F4)
- Kd [1]: 73 nM

- luminescence signal of PII-LgBiT with NAGK-SmBiT left at PipX 1:1 to NAGK (2 mM ATP) [2]: 50%
Substance: PipX (without SmBiT, competitor) (natural protein)

- time until half of the complex was dissociated after adding 2 mM 2-OG (2 mM ATP) [3]: 45 s
- luminescence signal with 0.5 mM ADP + 1.5 mM ATP (percent) [4]: 80%
- time until half of the complexes was dissociated after adding 2 mM 2-OG (1 mM ATP + 1 mM ADP) [5]: 340 s
- Kd [6]: 5.7 nM
- Kd [7]: 52 nM
Substance: PipX-SmBiT (PII-interacting protein X fused to Small BiT) (natural protein)
